Measured values from patent US20240279630, “ISOLATED CAS13 PROTEIN AND USE THEREOF” (GUANGZHOU REFORGENE MEDICINE CO., LTD., published 2024).

Legend:
CasRx (Cas13d) = assay: cell_activity
Cas13m.2 = target: T1, Cas13m.2 (metagenome); assay: cell_activity; 293T, 72 h; conditions: tags: NLS fusion
T1 chain: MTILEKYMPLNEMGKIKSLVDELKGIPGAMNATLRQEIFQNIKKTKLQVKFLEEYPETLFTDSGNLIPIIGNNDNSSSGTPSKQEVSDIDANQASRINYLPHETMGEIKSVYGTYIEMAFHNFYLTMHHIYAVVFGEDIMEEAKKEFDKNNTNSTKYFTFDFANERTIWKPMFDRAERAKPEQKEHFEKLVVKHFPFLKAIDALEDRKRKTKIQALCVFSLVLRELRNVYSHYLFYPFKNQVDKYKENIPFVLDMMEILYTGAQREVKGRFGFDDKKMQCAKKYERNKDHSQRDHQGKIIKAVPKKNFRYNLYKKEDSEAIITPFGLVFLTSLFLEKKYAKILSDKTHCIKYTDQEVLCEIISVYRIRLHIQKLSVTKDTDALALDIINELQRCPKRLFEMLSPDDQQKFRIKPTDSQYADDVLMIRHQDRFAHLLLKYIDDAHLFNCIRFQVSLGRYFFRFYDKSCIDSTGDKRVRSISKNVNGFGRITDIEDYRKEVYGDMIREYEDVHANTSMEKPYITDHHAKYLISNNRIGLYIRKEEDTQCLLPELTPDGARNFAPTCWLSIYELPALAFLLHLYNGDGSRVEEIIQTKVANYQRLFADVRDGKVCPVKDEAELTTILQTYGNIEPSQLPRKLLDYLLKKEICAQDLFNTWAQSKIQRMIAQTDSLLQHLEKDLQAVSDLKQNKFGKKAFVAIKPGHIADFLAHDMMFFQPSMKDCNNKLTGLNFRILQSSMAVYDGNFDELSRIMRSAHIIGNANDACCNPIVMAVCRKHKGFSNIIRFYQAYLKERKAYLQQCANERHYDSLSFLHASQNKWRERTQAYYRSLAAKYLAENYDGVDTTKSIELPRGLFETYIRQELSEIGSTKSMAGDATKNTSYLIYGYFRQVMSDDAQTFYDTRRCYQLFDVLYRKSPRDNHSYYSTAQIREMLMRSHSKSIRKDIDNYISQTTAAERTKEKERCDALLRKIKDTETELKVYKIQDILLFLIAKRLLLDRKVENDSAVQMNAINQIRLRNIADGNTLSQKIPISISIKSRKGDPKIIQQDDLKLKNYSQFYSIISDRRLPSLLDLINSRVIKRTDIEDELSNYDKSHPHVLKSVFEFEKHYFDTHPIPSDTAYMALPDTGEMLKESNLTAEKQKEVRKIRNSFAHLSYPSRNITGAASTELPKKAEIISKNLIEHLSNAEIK
Protocol: (§1) The 293T cells were transfected with the PTBP1-targeting plasmids of Cas13 m.2, Cas13 m.3, Cas13 m.5, CasRfg.2 and CasRx at 800 ng in a 24-well plate. The negative control group was transfected with the CasRx-BpiI plasmid.
(§2) The transfection method was as follows: [0276] 1) The cells were digested by trypsin (0.25% of Trypsin, EDTA, Thermo, 11058021), counted, and plated into a 24-well plates at 2×10⁵ cells according to 500 uL per well. [0277] 2) For each transfected sample, the complex was prepared according to the following steps: [0278] a. each well of the 24-well plate into which the cells were added, were added with 50 uL of serum-free Opti-MEM I (Thermo, 25200056) reduced serum medium for dilution of the aforementioned plasmid DNA, and mixed gently; [0279] b. it was gently mixed with Lipofectamine 2000 (Thermo, 11668019) before use, and then 1.8 uL of the Lipofectamine 2000 was diluted in each well, i.e., in 50 uL of the Opti-MEM I medium. It was incubated at room temperature for 5 minutes. Note: it was continued to perform step c within 25 minutes; [0280] c. after incubation for 5 minutes, the diluted DNA was combined with the diluted Lipofectamine 2000. They were gently mixed and incubated at room temperature for 20 minutes (the solution might be cloudy visually). Note: the complex was stabilized at room temperature for 6 hours.
(§3) The complex was added into the cells and mixed, and then detected with a QuantStudio™ 5 Real-Time PCR System, 96-well after 72 h.

Cas13m.3 = target: T2, Cas13m.3 (uncultured Bacteroidetes bacterium); assay: cell_activity; 293T, 72 h; conditions: tags: NLS fusion
T2 chain: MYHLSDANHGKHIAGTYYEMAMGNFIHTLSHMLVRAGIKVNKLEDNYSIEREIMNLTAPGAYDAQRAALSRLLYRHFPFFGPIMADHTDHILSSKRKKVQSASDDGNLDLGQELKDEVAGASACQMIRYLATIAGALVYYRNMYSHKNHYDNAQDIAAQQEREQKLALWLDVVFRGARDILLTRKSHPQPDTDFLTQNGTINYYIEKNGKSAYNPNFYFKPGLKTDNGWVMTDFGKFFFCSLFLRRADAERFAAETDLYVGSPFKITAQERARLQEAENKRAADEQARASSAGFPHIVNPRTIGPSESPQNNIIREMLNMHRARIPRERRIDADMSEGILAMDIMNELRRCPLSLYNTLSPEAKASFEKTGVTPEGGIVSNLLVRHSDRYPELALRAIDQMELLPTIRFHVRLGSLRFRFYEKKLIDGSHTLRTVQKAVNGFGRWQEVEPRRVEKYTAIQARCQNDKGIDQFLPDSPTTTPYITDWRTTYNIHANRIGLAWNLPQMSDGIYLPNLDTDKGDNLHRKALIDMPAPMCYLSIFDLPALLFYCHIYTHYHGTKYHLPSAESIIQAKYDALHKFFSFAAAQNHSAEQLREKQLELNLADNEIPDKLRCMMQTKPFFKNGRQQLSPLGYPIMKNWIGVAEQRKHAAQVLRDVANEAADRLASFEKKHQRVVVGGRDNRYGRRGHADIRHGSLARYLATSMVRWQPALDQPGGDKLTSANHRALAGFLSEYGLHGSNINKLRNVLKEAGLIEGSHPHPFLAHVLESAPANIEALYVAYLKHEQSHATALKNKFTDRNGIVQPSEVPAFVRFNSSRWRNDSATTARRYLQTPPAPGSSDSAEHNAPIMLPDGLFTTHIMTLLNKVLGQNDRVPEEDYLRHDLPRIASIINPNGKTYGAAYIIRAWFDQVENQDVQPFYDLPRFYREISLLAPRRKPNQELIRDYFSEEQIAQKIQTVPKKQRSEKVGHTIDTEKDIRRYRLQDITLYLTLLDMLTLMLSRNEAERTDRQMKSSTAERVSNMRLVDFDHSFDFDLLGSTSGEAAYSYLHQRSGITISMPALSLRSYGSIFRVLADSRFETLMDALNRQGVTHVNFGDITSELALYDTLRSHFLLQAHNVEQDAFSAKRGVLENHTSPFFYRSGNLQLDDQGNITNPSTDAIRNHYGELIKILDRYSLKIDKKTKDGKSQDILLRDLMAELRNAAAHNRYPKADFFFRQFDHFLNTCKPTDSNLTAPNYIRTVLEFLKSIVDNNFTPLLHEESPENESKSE
Protocol: as §1, §2, §3

Cas13m.5 = target: T3, Cas13m.5 (Bacteroidetes bacterium); assay: cell_activity; 293T, 72 h; conditions: tags: NLS fusion
T3 chain: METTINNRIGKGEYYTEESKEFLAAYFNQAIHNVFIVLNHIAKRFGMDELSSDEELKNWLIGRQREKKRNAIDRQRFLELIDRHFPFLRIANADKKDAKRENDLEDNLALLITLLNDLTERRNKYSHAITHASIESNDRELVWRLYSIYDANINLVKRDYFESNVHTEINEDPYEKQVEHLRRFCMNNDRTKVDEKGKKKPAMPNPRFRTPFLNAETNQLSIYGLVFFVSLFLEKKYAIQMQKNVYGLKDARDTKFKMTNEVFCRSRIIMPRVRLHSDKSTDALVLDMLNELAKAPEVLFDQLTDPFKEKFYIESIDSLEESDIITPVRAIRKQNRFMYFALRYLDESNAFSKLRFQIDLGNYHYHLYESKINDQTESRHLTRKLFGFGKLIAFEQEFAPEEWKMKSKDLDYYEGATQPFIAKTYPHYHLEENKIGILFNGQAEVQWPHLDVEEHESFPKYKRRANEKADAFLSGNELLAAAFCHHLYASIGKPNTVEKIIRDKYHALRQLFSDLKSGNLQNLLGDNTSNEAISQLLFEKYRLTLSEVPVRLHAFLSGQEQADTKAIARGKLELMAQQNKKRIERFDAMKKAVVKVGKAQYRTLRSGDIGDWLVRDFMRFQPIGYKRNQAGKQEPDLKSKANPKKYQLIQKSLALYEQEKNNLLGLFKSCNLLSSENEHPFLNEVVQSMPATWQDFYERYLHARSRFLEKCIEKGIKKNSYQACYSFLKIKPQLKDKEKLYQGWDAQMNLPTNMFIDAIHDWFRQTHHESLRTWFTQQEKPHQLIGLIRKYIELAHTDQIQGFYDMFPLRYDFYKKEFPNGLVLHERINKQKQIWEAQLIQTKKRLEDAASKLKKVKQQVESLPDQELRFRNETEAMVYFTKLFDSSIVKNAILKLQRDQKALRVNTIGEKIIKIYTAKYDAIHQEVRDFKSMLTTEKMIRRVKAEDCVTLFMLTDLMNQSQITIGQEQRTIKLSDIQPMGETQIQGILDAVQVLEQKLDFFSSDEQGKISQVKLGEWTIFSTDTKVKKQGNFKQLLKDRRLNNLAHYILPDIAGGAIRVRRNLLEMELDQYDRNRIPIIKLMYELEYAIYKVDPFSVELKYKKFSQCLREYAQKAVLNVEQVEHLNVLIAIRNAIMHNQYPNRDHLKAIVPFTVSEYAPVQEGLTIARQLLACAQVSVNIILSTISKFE
Protocol: as §1, §2, §3

CasRfg.2 (Cas13d) = target: T4, CasRfg.2 (Cas13d) (metagenome); assay: cell_activity; 293T, 72 h; conditions: tags: NLS fusion
T4 chain: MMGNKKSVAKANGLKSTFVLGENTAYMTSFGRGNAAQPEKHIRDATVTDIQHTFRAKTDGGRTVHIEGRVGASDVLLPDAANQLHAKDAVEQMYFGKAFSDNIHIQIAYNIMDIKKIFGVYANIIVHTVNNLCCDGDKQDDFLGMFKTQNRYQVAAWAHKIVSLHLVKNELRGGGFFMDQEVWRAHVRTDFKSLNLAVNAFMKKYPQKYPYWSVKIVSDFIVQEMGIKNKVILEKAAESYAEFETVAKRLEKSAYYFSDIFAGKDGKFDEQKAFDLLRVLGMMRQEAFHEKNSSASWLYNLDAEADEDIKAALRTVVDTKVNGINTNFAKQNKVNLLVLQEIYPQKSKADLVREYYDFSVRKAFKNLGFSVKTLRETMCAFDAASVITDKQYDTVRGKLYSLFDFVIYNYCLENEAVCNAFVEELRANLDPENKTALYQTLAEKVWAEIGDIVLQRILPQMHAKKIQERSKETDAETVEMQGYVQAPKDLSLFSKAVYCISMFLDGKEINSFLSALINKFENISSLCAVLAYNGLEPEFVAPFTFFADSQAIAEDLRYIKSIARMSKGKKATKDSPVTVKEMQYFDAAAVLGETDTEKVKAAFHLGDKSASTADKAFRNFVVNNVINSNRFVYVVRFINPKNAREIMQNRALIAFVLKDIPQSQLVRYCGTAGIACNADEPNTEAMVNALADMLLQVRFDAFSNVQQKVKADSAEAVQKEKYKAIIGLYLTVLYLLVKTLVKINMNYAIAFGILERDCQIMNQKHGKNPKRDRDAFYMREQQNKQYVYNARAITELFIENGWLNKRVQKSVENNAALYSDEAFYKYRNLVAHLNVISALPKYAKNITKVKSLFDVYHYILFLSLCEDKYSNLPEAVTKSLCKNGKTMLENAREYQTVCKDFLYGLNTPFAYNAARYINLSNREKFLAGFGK
Protocol: as §1, §2, §3

GUGGUUGGAGAACUGGAUGUAGAUGGGCUG / CAGCCCAUCUACAUCCAGUUCUCCAACCAC [PTBP1 gRNA CasRx (guide part only) ; PTBP1 mRNA site]
activity (relative mRNA level) (CasRx (Cas13d); 293T, 72 h, 0.59 in Table 10): 0.6

AGGGCAGAACCGAUGCUGAUGAAGAC / GUCUUCAUCAGCAUCGGUUCUGCCCU
activity (relative mRNA level) (CasRx (Cas13d); control 1.00): 0.03

GAAGACAAAGAGGGUCGUGG / CCACGACCCUCUUUGUCUUC
activity (relative mRNA level) (CasRx (Cas13d); 293T-AQp1, 72 h): 0.05

B1: PTBP1 gRNA Cas13m.2 ; PTBP1 mRNA site (ssRNA ; ssRNA)
RNA 1: GUGGUUGGAGAACUGGAUGUAGAUGGGCUGGUUGUAGAUGACCUCGUUUUGGAGGGGAAACACAAC
RNA 2: CAGCCCAUCUACAUCCAGUUCUCCAACCAC
activity (Cas13m.2): 0.49 relative mRNA level

B2: PTBP1 gRNA Cas13m.3 ; PTBP1 mRNA site (ssRNA ; ssRNA)
RNA 1: GUGGUUGGAGAACUGGAUGUAGAUGGGCUGGUUGUAGAAGCCGUUCAUUCGGGACGGUAUGACAAC
RNA 2: CAGCCCAUCUACAUCCAGUUCUCCAACCAC
activity (Cas13m.3): 0.46 relative mRNA level

B3: PTBP1 gRNA Cas13m.5 ; PTBP1 mRNA site (ssRNA ; ssRNA)
RNA 1: GUGGUUGGAGAACUGGAUGUAGAUGGGCUGGUUGUGUGUGCCUUUCAAAUUGAAGGCGUUCCCAAC
RNA 2: CAGCCCAUCUACAUCCAGUUCUCCAACCAC
activity (Cas13m.5): 0.7 relative mRNA level

B4: PTBP1 gRNA CasRfg.2 ; PTBP1 mRNA site (ssRNA ; ssRNA)
RNA 1: GGUUUUACACCCGUGUAAAACUACACAGUUCUAAAACGUGGUUGGAGAACUGGAUGUAGAUGGGCUG
RNA 2: CAGCCCAUCUACAUCCAGUUCUCCAACCAC
activity (CasRfg.2 (Cas13d)): 0.78 relative mRNA level
